Assay results reported in patent US20220265819A1.

Target: full length pHrodo-labelled monomeric (P301S) 2N4R tau (human) (UniProt P10636)
Assay: cell-based or functional assay

full length pHrodo-labelled monomeric (P301S) 2N4R tau (human), sequence (P10636 other isoform, or with tags, fused parts or gaps P301S P301S): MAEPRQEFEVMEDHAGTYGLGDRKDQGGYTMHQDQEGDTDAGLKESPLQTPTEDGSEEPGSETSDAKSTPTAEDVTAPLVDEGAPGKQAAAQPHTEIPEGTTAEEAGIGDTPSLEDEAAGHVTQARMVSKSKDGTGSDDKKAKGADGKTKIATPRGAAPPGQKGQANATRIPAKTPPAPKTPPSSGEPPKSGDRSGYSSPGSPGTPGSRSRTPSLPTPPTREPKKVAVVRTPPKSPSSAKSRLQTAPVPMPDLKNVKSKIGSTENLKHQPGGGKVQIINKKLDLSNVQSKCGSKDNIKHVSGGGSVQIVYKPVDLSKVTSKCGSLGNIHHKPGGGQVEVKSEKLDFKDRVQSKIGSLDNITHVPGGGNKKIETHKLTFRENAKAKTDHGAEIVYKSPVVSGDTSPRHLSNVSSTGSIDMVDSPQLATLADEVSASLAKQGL

**Q.** Which inhibition of uptake of monomeric tau into human iPSC-derived neurons does the source give for human IgG1 isotype control (antibody) here?
**A.** 16.9 % inhibition

**Q.** “isotype control rabbit IgG (Abcam) (antibody)” was tested. Which inhibition of uptake of monomeric tau into human iPSC-derived neurons did it give?
**A.** 14.5 % inhibition
